Source: US20200223889A1 (Novo Nordisk, published 2020)
Positions of bridges follow the written chain, without caps; N, C: chain ends. Non-standard residues stand in square brackets, D forms with d. Phe(3,4-(OMe)2) = COc1ccc(C[C@H](N)C(=O)O)cc1OC; Phe(3,4-Cl2) = N[C@@H](Cc1ccc(Cl)c(Cl)c1)C(=O)O; Phe(4-CN) = N#Cc1ccc(C[C@H](N)C(=O)O)cc1; 1Nal = N[C@@H](Cc1cccc2ccccc12)C(=O)O; 2Nal = N[C@@H](Cc1ccc2ccccc2c1)C(=O)O; Hyp = O=C(O)[C@@H]1C[C@@H](O)CN1; Cit = NC(=O)NCCC[C@H](N)C(=O)O; Sar = CNCC(=O)O

B1: Chem. 65 (peptide)
peptide: cyclo(CAH[dF]R[Phe(4-CN)]CAKKKW)
modifications: disulfide 1-7
SMILES: C[C@@H]1NC(=O)[C@@H]2CSSC[C@H](NC(=O)[C@H](Cc3ccc(C#N)cc3)NC(=O)[C@H](CCCNC(=N)N)NC(=O)[C@@H](Cc3ccccc3)NC(=O)[C@H](Cc3c[nH]cn3)NC1=O)C(=O)N[C@@H](C)C(=O)N[C@@H](CCCCN)C(=O)N[C@@H](CCCCN)C(=O)N[C@@H](CCCCN)C(=O)N[C@@H](Cc1c[nH]c3ccccc13)C(=O)N2
notes: also called c[c[Cys-Ala-His-D-Phe-Arg-4-CN-Phe-Cys]-Ala-Lys-Lys-Lys-Trp]
B2: Chem. 66 (peptide)
peptide: cyclo(CAH[dF]R[Phe(3,4-Cl2)]CAKKKW)
modifications: disulfide 1-7
SMILES: C[C@@H]1NC(=O)[C@@H]2CSSC[C@H](NC(=O)[C@H](Cc3ccc(Cl)c(Cl)c3)NC(=O)[C@H](CCCNC(=N)N)NC(=O)[C@@H](Cc3ccccc3)NC(=O)[C@H](Cc3c[nH]cn3)NC1=O)C(=O)N[C@@H](C)C(=O)N[C@@H](CCCCN)C(=O)N[C@@H](CCCCN)C(=O)N[C@@H](CCCCN)C(=O)N[C@@H](Cc1c[nH]c3ccccc13)C(=O)N2
notes: also called c[c[Cys-Ala-His-D-Phe-Arg-3,4-DiCl-Phe-Cys]-Ala-Lys-Lys-Lys-Trp]
B3: Chem. 73 (peptide)
peptide: cyclo(C[Sar]H[dF]HWCAKKKW)
modifications: disulfide 1-7
SMILES: C[C@@H]1NC(=O)[C@@H]2CSSC[C@H](NC(=O)[C@H](Cc3c[nH]c4ccccc34)NC(=O)[C@H](CCCCN)NC(=O)[C@H](CCCCN)NC(=O)[C@H](CCCCN)NC1=O)C(=O)N(C)CC(=O)N[C@@H](Cc1c[nH]cn1)C(=O)N[C@H](Cc1ccccc1)C(=O)N[C@@H](Cc1c[nH]cn1)C(=O)N[C@@H](Cc1c[nH]c3ccccc13)C(=O)N2
notes: also called c[c[Cys-Sar-His-D-Phe-His-Trp-Cys]-Ala-Lys-Lys-Lys-Trp]
B4: Chem. 67 (peptide)
peptide: cyclo(CAH[dF]R[Phe(3,4-(OMe)2)]CAKKKW)
modifications: disulfide 1-7
SMILES: COc1ccc(C[C@@H]2NC(=O)[C@H](CCCNC(=N)N)NC(=O)[C@@H](Cc3ccccc3)NC(=O)[C@H](Cc3c[nH]cn3)NC(=O)[C@H](C)NC(=O)[C@@H]3CSSC[C@H](NC2=O)C(=O)N[C@@H](C)C(=O)N[C@@H](CCCCN)C(=O)N[C@@H](CCCCN)C(=O)N[C@@H](CCCCN)C(=O)N[C@@H](Cc2c[nH]c4ccccc24)C(=O)N3)cc1OC
notes: also called c[c[Cys-Ala-His-D-Phe-Arg-3,4-DiMeo-Phe-Cys]-Ala-Lys-Lys-Lys-Trp]
B5: Chem. 7 (peptide)
peptide: cyclo(AAH[dF]RWAAH[dF]RW)
SMILES: C[C@@H]1NC(=O)[C@H](C)NC(=O)[C@H](Cc2c[nH]c3ccccc23)NC(=O)[C@H](CCCNC(=N)N)NC(=O)[C@@H](Cc2ccccc2)NC(=O)[C@H](Cc2c[nH]cn2)NC(=O)[C@H](C)NC(=O)[C@H](C)NC(=O)[C@H](Cc2c[nH]c3ccccc23)NC(=O)[C@H](CCCNC(=N)N)NC(=O)[C@@H](Cc2ccccc2)NC(=O)[C@H](Cc2c[nH]cn2)NC1=O
notes: also called c[Ala-Ala-His-D-Phe-Arg-Trp-Ala-Ala-His-D-Phe-Arg-Trp]
B6: Chem. 64 (peptide)
peptide: cyclo(CAH[dF]R[1Nal]CAKKKW)
modifications: disulfide 1-7
SMILES: C[C@@H]1NC(=O)[C@@H]2CSSC[C@H](NC(=O)[C@H](Cc3cccc4ccccc34)NC(=O)[C@H](CCCNC(=N)N)NC(=O)[C@@H](Cc3ccccc3)NC(=O)[C@H](Cc3c[nH]cn3)NC1=O)C(=O)N[C@@H](C)C(=O)N[C@@H](CCCCN)C(=O)N[C@@H](CCCCN)C(=O)N[C@@H](CCCCN)C(=O)N[C@@H](Cc1c[nH]c3ccccc13)C(=O)N2
notes: also called c[c[Cys-Ala-His-D-Phe-Arg-1-Nal-Cys]-Ala-Lys-Lys-Lys-Trp]
B7: Chem. 69 (peptide)
peptide: cyclo(CAH[dF]RWRCAH[dF]RWR)
modifications: disulfide 1-8
SMILES: C[C@@H]1NC(=O)[C@@H]2CSSC[C@H](NC(=O)[C@H](CCCNC(=N)N)NC(=O)[C@H](Cc3c[nH]c4ccccc34)NC(=O)[C@H](CCCNC(=N)N)NC(=O)[C@@H](Cc3ccccc3)NC(=O)[C@H](Cc3c[nH]cn3)NC1=O)C(=O)N[C@@H](C)C(=O)N[C@@H](Cc1c[nH]cn1)C(=O)N[C@H](Cc1ccccc1)C(=O)N[C@@H](CCCNC(=N)N)C(=O)N[C@@H](Cc1c[nH]c3ccccc13)C(=O)N[C@@H](CCCNC(=N)N)C(=O)N2
notes: also called c[c[Cys-Ala-His-D-Phe-Arg-Trp-Arg-Cys]-Ala-His-D-Phe-Arg-Trp-Arg]
B8: Chem. 79 (peptide)
peptide: cyclo(CAH[dF]R[2Nal]CAKKKW)
modifications: disulfide 1-7
SMILES: C[C@@H]1NC(=O)[C@@H]2CSSC[C@H](NC(=O)[C@H](Cc3ccc4ccccc4c3)NC(=O)[C@H](CCCNC(=N)N)NC(=O)[C@@H](Cc3ccccc3)NC(=O)[C@H](Cc3c[nH]cn3)NC1=O)C(=O)N[C@@H](C)C(=O)N[C@@H](CCCCN)C(=O)N[C@@H](CCCCN)C(=O)N[C@@H](CCCCN)C(=O)N[C@@H](Cc1c[nH]c3ccccc13)C(=O)N2
notes: also called c[c[Cys-Ala-His-D-Phe-Arg-2-Nal-Cys]-Ala-Lys-Lys-Lys-Trp]
B9: Chem. 68 (peptide)
peptide: cyclo(CH[dF]RWRCH[dF]RWR)
modifications: disulfide 1-7
SMILES: N=C(N)NCCC[C@@H]1NC(=O)[C@H](Cc2c[nH]c3ccccc23)NC(=O)[C@H](CCCNC(=N)N)NC(=O)[C@@H](Cc2ccccc2)NC(=O)[C@H](Cc2c[nH]cn2)NC(=O)[C@@H]2CSSC[C@H](NC1=O)C(=O)N[C@@H](Cc1c[nH]cn1)C(=O)N[C@H](Cc1ccccc1)C(=O)N[C@@H](CCCNC(=N)N)C(=O)N[C@@H](Cc1c[nH]c3ccccc13)C(=O)N[C@@H](CCCNC(=N)N)C(=O)N2
notes: also called c[c[Cys-His-D-Phe-Arg-Trp-Arg-Cys]-His-D-Phe-Arg-Trp-Arg]
B10: Chem. 63 (peptide)
peptide: XAHFRWCAHXRW
modifications: Pen 1; D-Phe 4, 10; disulphide Pen1-Cys7; head-to-tail amide Pen1-Trp12
notes: also called c[c[Pen-Ala-His-D-Phe-Arg-Trp-Cys]-Ala-His-D-Phe-Arg-Trp]
B11: Chem. 70 (peptide)
peptide: cyclo(C[Hyp]H[dF]HWCAKKKW)
modifications: disulfide 1-7
SMILES: C[C@@H]1NC(=O)[C@@H]2CSSC[C@H](NC(=O)[C@H](Cc3c[nH]c4ccccc34)NC(=O)[C@H](CCCCN)NC(=O)[C@H](CCCCN)NC(=O)[C@H](CCCCN)NC1=O)C(=O)N1C[C@H](O)C[C@H]1C(=O)N[C@@H](Cc1c[nH]cn1)C(=O)N[C@H](Cc1ccccc1)C(=O)N[C@@H](Cc1c[nH]cn1)C(=O)N[C@@H](Cc1c[nH]c3ccccc13)C(=O)N2
notes: also called c[c[Cys-Hyp-His-D-Phe-His-Trp-Cys]-Ala-Lys-Lys-Lys-Trp]
B12: Chem. 72 (peptide)
peptide: cyclo(CPH[dF][Cit]WCAKKKR)
modifications: disulfide 1-7
SMILES: C[C@@H]1NC(=O)[C@@H]2CSSC[C@H](NC(=O)[C@H](CCCNC(=N)N)NC(=O)[C@H](CCCCN)NC(=O)[C@H](CCCCN)NC(=O)[C@H](CCCCN)NC1=O)C(=O)N1CCC[C@H]1C(=O)N[C@@H](Cc1c[nH]cn1)C(=O)N[C@H](Cc1ccccc1)C(=O)N[C@@H](CCCNC(N)=O)C(=O)N[C@@H](Cc1c[nH]c3ccccc13)C(=O)N2
notes: Printed shorthand is identical to that of Chem. 99; the drawings may differ; also called c[c[Cys-Pro-His-D-Phe-Cit-Trp-Cys]-Ala-Lys-Lys-Lys-Arg]

Columns and labels:
[1] = molecular target: T1, human melanocortin 4 receptor (human, UniProt P32245 1-332); assay: cell-based or functional assay
T1 sequence (P32245 whole entry): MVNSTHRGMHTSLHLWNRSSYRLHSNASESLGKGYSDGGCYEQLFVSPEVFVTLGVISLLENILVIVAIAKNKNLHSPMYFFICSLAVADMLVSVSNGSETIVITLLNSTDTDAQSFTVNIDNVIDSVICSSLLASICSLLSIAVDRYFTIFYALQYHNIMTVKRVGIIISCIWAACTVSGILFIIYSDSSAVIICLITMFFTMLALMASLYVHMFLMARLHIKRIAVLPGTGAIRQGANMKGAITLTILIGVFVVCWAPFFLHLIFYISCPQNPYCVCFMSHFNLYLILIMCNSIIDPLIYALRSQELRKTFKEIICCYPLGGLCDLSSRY

[2] = molecular target: human melanocortin 1 receptor (human, UniProt Q01726 1-317); assay: cell-based or functional assay
human melanocortin 1 receptor, sequence (Q01726 whole entry): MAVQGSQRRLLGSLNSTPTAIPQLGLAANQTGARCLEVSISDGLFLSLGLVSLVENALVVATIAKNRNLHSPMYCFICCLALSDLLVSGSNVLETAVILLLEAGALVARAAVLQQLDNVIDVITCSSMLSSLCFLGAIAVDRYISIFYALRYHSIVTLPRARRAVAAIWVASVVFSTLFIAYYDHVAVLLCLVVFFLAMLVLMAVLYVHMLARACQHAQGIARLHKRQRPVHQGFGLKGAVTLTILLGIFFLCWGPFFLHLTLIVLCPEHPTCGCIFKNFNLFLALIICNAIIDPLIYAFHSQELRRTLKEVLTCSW

[3] = molecular target: T1, human melanocortin 4 receptor; assay: competition with 125-NDP-α-MSH, BHK human MC4R membranes
Protocol: In order to assess the binding affinity of the selected compounds for the human MC4R competitive binding assays was performed with radiolabeled NDP-alpha MSH (¹²⁵NDP-α-MSH).
The assay was performed in 96-well filterplates (Unifilter) using BHK cells stably expressing the human MC4 receptor.
The BHK cell membranes were prepared from frozen or fresh cells that were homogenized in 20 mM HEPES pH 7.1, 5 mM MgCl₂, 1 mg/ml bacitracin (buffer 1) and centrifuged at 15000 rpm at 4° C., 10 min in a Sorvall RC 5B plus, SS-34 rotor. The supernatant was discarded, and the pellets were re-suspended in buffer 1, homogenized and centrifuged two more times. The final pellets were re-suspended in buffer 1 and the protein concentration was measured and adjusted with buffer 1 to 5 mg/ml and the membrane preparation was kept at −80° C. until assay. The assay was run on a dilution of this cell membrane suspension without any further preparation. The suspension was diluted to give maximally 10% specific binding, i.e. to approx. 50-100 fold dilution, optimized after each membrane preparation. The assay was performed in a total volume of 200 μl: 50 μl of cell suspension, 50 μl of ¹²⁵NDP-α-MSH (apx. […] in final concentration), 50 μl of test compound and 50 μl binding buffer were mixed and incubated for 2 h at 25° C. (binding buffer: 25 mM HEPES, pH 7.0, 1 mM CaCl₂), 1 mM MgSO₄, 1 mM EGTA, 0.005% Tween™ 20 and 0.1% HSA or, alternatively, 0.1% ovalbumin (Sigma; catalogue No. A-5503)). Test compounds were dissolved in 100% DMSO and diluted in binding buffer in a dose range from 1 μM to 0.001 nM. Radiolabelled ligand and membranes were diluted in binding buffer. The incubation was stopped by dilution with 8×100 μl ice-cold 0.9% NaCl. The radioactivity retained on the filters was counted using a Packard Topcounter. The data were analysed by non-linear regression analysis of binding curves, using the Windows™ program GraphPad™ Prism (GraphPad Software, USA).

Binder | MC4R cAMP EC50 [1] [nM] | MC1R cAMP EC50 [2] [nM] | Ki [3] [nM]
B1 | 0.42 | 10.8 | 0.47
B2 | 0.01 | 0.22 | 0.03
B3 | 1.26 | > 50 | 0.3
B4 | 2.99 | > 55 | 0.95
B5 | 0.06 | 4.56 | 0.47
B6 | 0.03 | 4.23 | 0.09
B7 | 1.52 | 6.9 | 4.65
B8 | 0.02 | 1.16 | 0.03
B9 | 4.35 | 4.87 | 10.4
B10 | 0.02 | 0.84 | 0.08
B11 | 0.38 | 75.7 | 0.07
B12 | 0.03 | 5.86 | 0.03
